This passage reports abundance fitness results from the Human Domainome abundance scans (Beltran et al. 2025).

B1: Ubiquitin-protein ligase residues 30 to 86; numbered along this chain, Q05086 (parent)
chain: KHLIERYYHQLTEGCGNEACTNEFCASCPTFLRMDNNAAAIKALELYKINAKLCDPH
B2: Chromodomain-helicase-DNA-binding protein 3, residues 374 to 426; numbered along this chain, Q12873 (parent)
chain: YETDHQDYCEVCQQGGEIILCDTCPRAYHLVCLDPELDRAPEGKWSCPHCEKE

± gives the uncertainty stated by the source.

In the first data set the parent is B1. The experiment in a line: abundance fitness (aPCA) (normalised: wild type 0, dead -1); higher = more abundant; growth selection in yeast, the domain comes from the species named. Conditions: Homo sapiens.
In the case of LHLIERYYHQLTEGCGNEACTNEFCASCPTFLRMDNNAAAIKALELYKINAKLCDPH [K1L], the abundance fitness was -0.577 ± 0.27.
Still for that read-out and setting: as for SHLIERYYHQLTEGCGNEACTNEFCASCPTFLRMDNNAAAIKALELYKINAKLCDPH [K1S], the figure is -0.833 ± 0.28; as for CHLIERYYHQLTEGCGNEACTNEFCASCPTFLRMDNNAAAIKALELYKINAKLCDPH [K1C], -0.33 ± 0.25.
As for YHLIERYYHQLTEGCGNEACTNEFCASCPTFLRMDNNAAAIKALELYKINAKLCDPH [K1Y], the abundance fitness was -0.31 ± 0.36.
On the same count and under the same terms, as for AHLIERYYHQLTEGCGNEACTNEFCASCPTFLRMDNNAAAIKALELYKINAKLCDPH [K1A], the figure is -0.757 ± 0.29; as for EHLIERYYHQLTEGCGNEACTNEFCASCPTFLRMDNNAAAIKALELYKINAKLCDPH [K1E], -0.368 ± 0.31; as for RHLIERYYHQLTEGCGNEACTNEFCASCPTFLRMDNNAAAIKALELYKINAKLCDPH [K1R], -0.102 ± 0.11.
For MHLIERYYHQLTEGCGNEACTNEFCASCPTFLRMDNNAAAIKALELYKINAKLCDPH [K1M], the abundance fitness was -0.253 ± 0.14.
The same measure, in the same setting: under FHLIERYYHQLTEGCGNEACTNEFCASCPTFLRMDNNAAAIKALELYKINAKLCDPH [K1F] stands -0.53 ± 0.32; under THLIERYYHQLTEGCGNEACTNEFCASCPTFLRMDNNAAAIKALELYKINAKLCDPH [K1T], -0.1 ± 0.15; under GHLIERYYHQLTEGCGNEACTNEFCASCPTFLRMDNNAAAIKALELYKINAKLCDPH [K1G], -0.476 ± 0.27.
Regarding PHLIERYYHQLTEGCGNEACTNEFCASCPTFLRMDNNAAAIKALELYKINAKLCDPH [K1P], the abundance fitness is -0.719 ± 0.41.
Regarding VHLIERYYHQLTEGCGNEACTNEFCASCPTFLRMDNNAAAIKALELYKINAKLCDPH [K1V], the abundance fitness is -0.517 ± 0.23.
Consider NHLIERYYHQLTEGCGNEACTNEFCASCPTFLRMDNNAAAIKALELYKINAKLCDPH [K1N], for which the abundance fitness is -0.397 ± 0.23.
The same measure, in the same setting: under KTLIERYYHQLTEGCGNEACTNEFCASCPTFLRMDNNAAAIKALELYKINAKLCDPH [H2T] stands -0.085 ± 0.099; under KVLIERYYHQLTEGCGNEACTNEFCASCPTFLRMDNNAAAIKALELYKINAKLCDPH [H2V], -0.044 ± 0.072; under KWLIERYYHQLTEGCGNEACTNEFCASCPTFLRMDNNAAAIKALELYKINAKLCDPH [H2W], -0.542 ± 0.071.
Same read-out and setting: under KCLIERYYHQLTEGCGNEACTNEFCASCPTFLRMDNNAAAIKALELYKINAKLCDPH [H2C] stands -0.204 ± 0.081; under KRLIERYYHQLTEGCGNEACTNEFCASCPTFLRMDNNAAAIKALELYKINAKLCDPH [H2R], -0.025 ± 0.052.
KYLIERYYHQLTEGCGNEACTNEFCASCPTFLRMDNNAAAIKALELYKINAKLCDPH [H2Y]: the abundance fitness amounted to 0.051 ± 0.094.
The same measure, in the same setting: under KKLIERYYHQLTEGCGNEACTNEFCASCPTFLRMDNNAAAIKALELYKINAKLCDPH [H2K] stands -0.021 ± 0.12; under KALIERYYHQLTEGCGNEACTNEFCASCPTFLRMDNNAAAIKALELYKINAKLCDPH [H2A], -0.041 ± 0.085; under KLLIERYYHQLTEGCGNEACTNEFCASCPTFLRMDNNAAAIKALELYKINAKLCDPH [H2L], -0.005 ± 0.066.
For the variant KSLIERYYHQLTEGCGNEACTNEFCASCPTFLRMDNNAAAIKALELYKINAKLCDPH [H2S], the abundance fitness came to 0.019 ± 0.071.
Regarding KQLIERYYHQLTEGCGNEACTNEFCASCPTFLRMDNNAAAIKALELYKINAKLCDPH [H2Q], the abundance fitness turned out to be 0.025 ± 0.071.
Still for that read-out and setting: under KPLIERYYHQLTEGCGNEACTNEFCASCPTFLRMDNNAAAIKALELYKINAKLCDPH [H2P] stands -0.116 ± 0.077; under KMLIERYYHQLTEGCGNEACTNEFCASCPTFLRMDNNAAAIKALELYKINAKLCDPH [H2M], -0.03 ± 0.091; under KELIERYYHQLTEGCGNEACTNEFCASCPTFLRMDNNAAAIKALELYKINAKLCDPH [H2E], -0.055 ± 0.086.
Still for that read-out and setting: as for KILIERYYHQLTEGCGNEACTNEFCASCPTFLRMDNNAAAIKALELYKINAKLCDPH [H2I], the figure is 0.229 ± 0.23; as for KDLIERYYHQLTEGCGNEACTNEFCASCPTFLRMDNNAAAIKALELYKINAKLCDPH [H2D], 0.082 ± 0.11.

In the next data set the parent is B2. The data set is described as above. Particulars: Homo sapiens.
Regarding K52M, the abundance fitness is -0.156 ± 0.23.
Consider K52D, for which the abundance fitness is -0.413 ± 0.24.
Consider K52P, for which the abundance fitness is 0.104 ± 0.18.
On the same count and under the same terms, as for K52A, the figure is -0.264 ± 0.14; as for K52R, 0.013 ± 0.11; as for Y8L, 0.215 ± 0.095.
As to Y8R, the abundance fitness is 0.25 ± 0.079.
Same read-out and setting: under Y8Q stands 0.499 ± 0.12.
Same read-out and setting: as for Y8T, the figure is -0.118 ± 0.1.
On the same count and under the same terms, under Y8F stands 0.083 ± 0.23.
Take Y8S: the abundance fitness was -0.026 ± 0.092.
On the same count and under the same terms, under P35E stands -0.306 ± 0.11; under P35L, -0.11 ± 0.098.
Same read-out and setting: as for P35H, the figure is -0.052 ± 0.31.
As to P35K, the abundance fitness was -0.183 ± 0.15.
Consider P35T, for which the abundance fitness was -0.013 ± 0.14.
On the same count and under the same terms, as for D7T, the figure is -0.036 ± 0.19; as for D7K, -0.044 ± 0.15.
The same measure, in the same setting: under D7L stands -0.727 ± 0.22; under D7N, 0.044 ± 0.1; under R26C, -0.669 ± 0.24.
On the same count and under the same terms, under R26N stands -0.169 ± 0.16.
For the variant R26V, the abundance fitness was -0.363 ± 0.1.
Consider V11E, for which the abundance fitness amounted to 0.277 ± 0.08.
For the variant V11M, the abundance fitness is 0.279 ± 0.083.
For V11Y, the abundance fitness turned out to be 0.085 ± 0.1.
Still for that read-out and setting: under V11P stands 0.029 ± 0.087; under V11H, 0.362 ± 0.11.
On to V11Q, for which the abundance fitness is -0.217 ± 0.098.
As to V11D, the abundance fitness was determined as 0.178 ± 0.089.
Regarding L33R, the abundance fitness was -0.39 ± 0.091.
In the case of L33C, the abundance fitness stood at 0.072 ± 0.12.
On the same count and under the same terms, as for L33S, the figure is -0.286 ± 0.11; as for A40Y, -0.38 ± 0.17.
For the variant A40P, the abundance fitness was -0.138 ± 0.15.
With A40S, the abundance fitness is -0.221 ± 0.1.
Take A40N: the abundance fitness was -0.169 ± 0.26.
Still for that read-out and setting: under A40F stands -0.44 ± 0.16.
Still for that read-out and setting: as for A40D, the figure is 0.026 ± 0.19; as for D22A, -0.31 ± 0.27; as for D22W, -0.013 ± 0.17.
The same measure, in the same setting: under C21H stands -0.806 ± 0.25.
For C21G, the abundance fitness was -0.637 ± 0.12.
For C21Y, the abundance fitness is -0.692 ± 0.16.
On the same count and under the same terms, under Q13P stands -0.783 ± 0.13.
For Q13F, the abundance fitness was found to be 0.012 ± 0.12.
Turning to Q13C, the abundance fitness was -0.048 ± 0.12.
Still for that read-out and setting: as for Q13R, the figure is 0.01 ± 0.081; as for Q13N, -0.084 ± 0.13; as for C24P, -1.11 ± 0.21.
C24Q: the abundance fitness is -0.898 ± 0.24.
Still for that read-out and setting: as for E2K, the figure is 0.294 ± 0.15.
Same read-out and setting: as for E2D, the figure is 0.327 ± 0.12.
E2F: the abundance fitness was 0.285 ± 0.13.
For E2W, the abundance fitness is -0.006 ± 0.27.
The same measure, in the same setting: under E2T stands 0.34 ± 0.097; under E2A, -0.263 ± 0.1; under E51I, -0.438 ± 0.26.
On to E51Y, for which the abundance fitness was -0.554 ± 0.37.
As for E51M, the abundance fitness is -0.396 ± 0.16.
Consider E51S, for which the abundance fitness is -0.158 ± 0.14.
Still for that read-out and setting: under E51A stands -0.215 ± 0.095.
The same measure, in the same setting: under K44W stands -0.525 ± 0.14; under K44D, -0.329 ± 0.24; under K44Y, -0.395 ± 0.26.
Same read-out and setting: under K44I stands 0.363 ± 0.25.
For K44R, the abundance fitness was 0.043 ± 0.1.
Consider K44F, for which the abundance fitness was -0.136 ± 0.37.
Regarding K44M, the abundance fitness was -0.011 ± 0.19.
Take C9K: the abundance fitness is -0.425 ± 0.19.
Still for that read-out and setting: under C9H stands -0.786 ± 0.17.
Same read-out and setting: under C9E stands -0.548 ± 0.21; under C9F, -0.975 ± 0.17.
The same measure, in the same setting: under E53T stands -0.187 ± 0.31; under E53G, -0.118 ± 0.15; under E53Q, -0.118 ± 0.26.
Turning to E53D, the abundance fitness was -0.374 ± 0.23.
Same read-out and setting: under E53C stands -0.584 ± 0.47; under C32E, -0.663 ± 0.24.
Still for that read-out and setting: under C32V stands -1.2 ± 0.15; under C32L, -0.986 ± 0.095.
For C32K, the abundance fitness was -0.958 ± 0.21.
The same measure, in the same setting: under C32D stands -0.718 ± 0.16; under C50F, -0.682 ± 0.31.
The same measure, in the same setting: as for C50A, the figure is -0.417 ± 0.13; as for C50P, -0.424 ± 0.16.
With C50H, the abundance fitness was -0.291 ± 0.33.
On the same count and under the same terms, under C50E stands -0.547 ± 0.16.
Consider R39G, for which the abundance fitness was -0.123 ± 0.13.
For R39L, the abundance fitness is -0.156 ± 0.14.
For the variant R39C, the abundance fitness was -0.221 ± 0.17.
The same measure, in the same setting: under R39T stands -0.037 ± 0.17; under R39P, -0.084 ± 0.24.
On to G15E, for which the abundance fitness was -0.202 ± 0.19.
Consider G15N, for which the abundance fitness is -0.065 ± 0.27.
As for G15W, the abundance fitness was -0.121 ± 0.2.
The same measure, in the same setting: under S46F stands -0.104 ± 0.14; under S46K, -0.084 ± 0.17.
